Target: recombinant anthrax protective antigen (PA) (Bacillus anthracis) (UniProt P13423)
Assay: SPR (Biacore)

Chain of recombinant anthrax protective antigen (PA) (Bacillus anthracis) (P13423 30-764 limits assumed): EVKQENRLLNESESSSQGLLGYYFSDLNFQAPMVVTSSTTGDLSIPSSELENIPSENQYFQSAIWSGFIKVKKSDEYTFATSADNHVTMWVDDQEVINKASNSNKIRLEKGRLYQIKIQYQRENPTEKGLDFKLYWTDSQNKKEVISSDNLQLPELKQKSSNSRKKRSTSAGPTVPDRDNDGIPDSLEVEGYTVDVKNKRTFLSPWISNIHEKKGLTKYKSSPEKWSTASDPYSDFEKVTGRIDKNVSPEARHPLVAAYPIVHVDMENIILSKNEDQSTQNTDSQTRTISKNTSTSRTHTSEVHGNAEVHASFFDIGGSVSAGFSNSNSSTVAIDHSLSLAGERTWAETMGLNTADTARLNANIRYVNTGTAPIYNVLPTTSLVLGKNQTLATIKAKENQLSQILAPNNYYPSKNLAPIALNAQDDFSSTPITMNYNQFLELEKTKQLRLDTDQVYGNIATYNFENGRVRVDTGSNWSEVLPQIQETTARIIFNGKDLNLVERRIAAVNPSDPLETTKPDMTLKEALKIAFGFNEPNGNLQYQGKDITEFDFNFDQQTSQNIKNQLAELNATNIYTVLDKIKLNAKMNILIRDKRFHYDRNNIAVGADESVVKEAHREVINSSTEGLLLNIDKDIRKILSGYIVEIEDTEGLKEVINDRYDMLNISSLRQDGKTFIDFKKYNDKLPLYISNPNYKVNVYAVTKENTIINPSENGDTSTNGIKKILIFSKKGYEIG

mouse anti-PA monoclonal antibody 14B7
Kd: 4 nM

Source: patent US20100074892A1
